Values quoted from earlier work, collected in paper PMC10558290.
Read-outs that look alike come from different tables or passages of the source.

Legend:
[1] = target: G-actin (Saccharomyces cerevisiae) (UniProt P60010)
[2] = target: G-actin (Saccharomyces cerevisiae) (UniProt P60010); remark: listed apart in the source

Srv2, sequence (P17555 whole entry): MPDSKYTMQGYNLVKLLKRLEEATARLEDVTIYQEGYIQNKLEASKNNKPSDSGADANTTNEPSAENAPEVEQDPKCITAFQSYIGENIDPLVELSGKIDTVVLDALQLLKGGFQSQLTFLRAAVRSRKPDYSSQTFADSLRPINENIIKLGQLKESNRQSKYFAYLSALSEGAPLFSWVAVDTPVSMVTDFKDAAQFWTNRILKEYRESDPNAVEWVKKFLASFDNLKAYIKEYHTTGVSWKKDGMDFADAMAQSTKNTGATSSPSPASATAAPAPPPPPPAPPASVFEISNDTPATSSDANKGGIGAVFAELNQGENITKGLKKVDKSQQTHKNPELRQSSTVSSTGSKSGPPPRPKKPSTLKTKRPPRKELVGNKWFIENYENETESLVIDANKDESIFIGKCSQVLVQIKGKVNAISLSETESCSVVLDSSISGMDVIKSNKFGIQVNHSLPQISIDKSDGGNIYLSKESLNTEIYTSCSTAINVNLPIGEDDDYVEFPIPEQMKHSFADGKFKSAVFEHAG
Profilin Pfy1, sequence (P07274 whole entry): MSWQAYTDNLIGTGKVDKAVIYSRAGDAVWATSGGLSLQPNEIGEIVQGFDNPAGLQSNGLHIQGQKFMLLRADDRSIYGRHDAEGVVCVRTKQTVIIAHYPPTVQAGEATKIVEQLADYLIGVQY

| Substance | Kd [1] | Kd [2] |
| --- | --- | --- |
| Profilin Pfy1 (from UniProt P07274) | 100 nM | – |
| Srv2 (from UniProt P17555) | – | 18 nM |
